Measurements reported in patent US20230257435A1, “Wound Healing Composition and Uses Thereof” (AGENCY FOR SCIENCE, TECHNOLOGY AND RESEARCH, priority 2020, published 2023).

Tests used:
[1] = system: BJ and HaCaT cells; assay: Transwell migration assay; type: cell-based, human; conditions: sAgrin 10 μg/ml as chemoattractant
Method: FIG. 5 are assays showing effects of Agrin knockdown on 2D migration of keratinocytes and dermal fibroblasts. (a) RT-PCR analysis for Agrin gene expression in BJ and HaCaT cells treated with either control or Agrin siRNA. Data presented as mean+/−s.d. These knockdown cells were subsequently used for transwell migration assays. Migration was analyzed for a batch of Agrin depleted cells in response to sAgrin (10 μg/ml) in the bottom chambers as a chemoattractant (third panels). Migrating were quantified using ImageJ and represented as mean+/−s.d. (n=3, Students ‘t’ test, p=0.0004, 0.0003, and 0.0005, respectively). Scale bar: 20 μm. (b) Control, Agrin depleted, and Agrin knockdown BJ or primary mouse dermal fibroblasts (DF) cells pre-treated with 10 μg/ml sAgrin for 18 h were subjected to scratch wound assays. Representative bright-field images showing relative migration are presented at the indicated time-points. The mean non-migrated area+/−s.d. was quantified using ImageJ (n=3, Students ‘t’ test, *p<0.05, **p<0.004, ***p<0.0005, ****p=0.000002, ****p<0.000001, respectively). Scale bar: 20 μm. A Western blot verifying the knockdown of Agrin in DF is also shown with GAPDH as loading control. […] Results are quantified as in panel (b) (n=3, Students ‘t’ test, ****p<0.000001, **p<0.005, *p<0.05, respectively, all other p values are represented in the panels). […]

[2] = system: mouse keratinocytes; assay: Cell stiffness by atomic force microscopy (AFM); type: cell-based
Method: The stiffness of the mouse keratinocyte cells was measured using a Nanowizard IV BioAFM system (JPK Instruments, Germany). Confluent mouse kerantinocyte monolayers were cultured on a petri dish in PBS media. The monolayers were scratched across the center of the petri dish using a 100 μl pipette tip and characterised after 4 hrs. Indentations were performed on randomly selected cells at the wound edge with a polystyrene bead of diameter (˜4.5 μm) attached to the end of a cantilever (k=0.03 N/m, Novascan Technologies, Inc., Ames, Iowa) using a force of 3 nN at 1 Hz. More than 60 cells from triplicate experiments were characterized and averaged to evaluate the Young's modulus for each condition. Young's modulus values were calculated using JPK Data Processing Software (JPK Instruments, Germany), which employs Hertz's contact model for spherical indenters (diameter 4.5 μm; Poisson's ratio 0.5) fitted to the extend curves.

[3] = system: phosphorylated myosin light chain (pMLC); assay: Actomyosin cables / pMLC activation after wound scratch; type: cell-based, human
Method: Indicated cells post-manipulation were washed twice with cold Phosphate buffered saline (PBS) and lysed with cold 1% NP-40 lysis buffer supplemented with 1× protease inhibitor cocktail (Roche Applied Biosciences) for 15 mins at 4° C. The cell lysate was centrifuged at 13,000 rpm for 15 min. This was followed by protein estimation using Bradford reagent. Subsequently, […] of total protein was mixed with an equal volume of 2× Laemmli sample buffer and heated at 95° C. for 5 mins. This was followed by resolution with SDS-PAGE gel. The resolved proteins were transferred onto nitrocellulose membrane and blocked in 5% skimmed milk reconstituted in 1×PBS containing 0.1% Tween-20, and probed overnight with the respective primary antibody. The membrane was then washed with 1×PBS supplemented with 0.1% Tween-20: three times at 15 min intervals. This was followed by 1 h incubation in conjugated horseradish peroxidase HRP secondary antibody (Santa Cruz Biotechnology). Post-incubation, the blot was again washed three times as above and then overlaid with enhanced chemiluminescence (ECL) substrate (Pierce/Bio-Rad) and visualized on X-ray film by image processor or digitally by Chemidoc analyzer (Bio-Rad). The density of the various bands was quantified using the Image-J software.
Cells were cultured on eight-well chamber slides or coverslips over-night. Cells were then washed twice with PBS and fixed for 15 min with 4% paraformaldehyde. Subsequently, the cells were permeabilized for 15 min with 0.1% Triton X in Phosphate buffered saline containing 1 mM Ca^+2 and 1 mM Mg^+2 (PBSCM) at room temperature. The permeabilized cells were incubated with indicated antibodies in fluorescent dilution buffer (FDB) for 1-2 h at RT or overnight at 4° C., followed by 5 washes with PBSCM and incubation with secondary antibody; Alexa Fluor (Thermo Fisher Scientific) for 1 h at RT. Slides were again washed five times with PBSCM and mounted with Vectashield medium containing DAPI. The stained cells were then imaged by a Zeiss confocal microscope. The images were processed and analyzed by Zen blue software. Intensity measurements were acquired using tool selection parameter in image analysis within the Zen blue software.
A confluent monolayer of control and Agrin depleted cells in a 6-well plate was subjected to a unidirectional scratch using a 20 μl pipette tip. This was followed by washing with 1×PBS at room temperature and incubation in complete culture media at 37° C. and 5% CO2 with or without sAgrin used as indicated. Phase contrast images of the wound area were taken periodically at the indicated time-points. For some wound-healing migration assays, keratinocytes were cultured on either soft or stiff substrates within a stencil barrier (Nalge Nunc., Inc) for 18 h. Upon removal of the barrier, the cells were allowed to migrate and imaged using an Axiovert 200 inverted microscope at indicated time-points.

B1: sAgrin: C-terminus recombinant Agrin fragment containing 8 amino acid 'Z8' insert and LG3 domain (SEQ ID NO: 7), His-tagged, expressed in E. coli (protein)
chain: DTLAFDGRTFVEYLNAVTESELANEIPVEKALQSNHFELSLRTEATQGLVLWSGKATERADYVALAIVDGHLQLSYNLGSQPVVLRSTVPVNTNRWLRVVAHREQREGSLQVGNEAPVTGSSPLGATQLDTDGALWLGGLPELPVGPALPKAYGTGFVGCLRDVVVGRHPLHLLEDAVTKPELRPCPTP
modifications: His tag
trans-well migration (rescue of Agrin knockdown) [1]: in part, rescued
stiffness of migrating MMP12 knockdown keratinocytes ([2]; 4 h post-injury, sAgrin treatment): not restored by sAgrin treatment
stiffness of migrating keratinocytes ([2]; Agrin knockdown rescued with 10 μg/ml sAgrin, 4 h post-wound scratch, control ~2.1, knockdown ~0.9 KPa): ~1.5 KPa
pMLC recruitment to wound edges ([3]; 10 μg/ml sAgrin 18 h): strong recruitment of pMLC to wound edges forming stable actomyosin cables
actomyosin cables in Agrin deprived cells ([3]; 10 μg/ml sAgrin 18 h, within 4 h post-wounding): restored
actomyosin cable network in MMP12 suppressed cells ([3]; MMP12 siRNA, 10 μg/ml sAgrin 18 h): did not restore actomyosin cable network
pMLC levels in MMP12 depleted keratinocytes ([3]; within 2 h post-wounding): unable to rescue the severely diminished pMLC levels
pMLC activation in Agrin depleted cells ([3]; within 2 h post-wounding, sAgrin pre-treatment): restored
